Experimental data published in publication PMC10432803.

Key:
[1] = molecular target: PaSOD-2 (Cys-less CuZnSOD from Paenibacillus lautus NBRC 15380, WP_246059286.1 without the predicted signal peptide) (Paenibacillus lautus NBRC 15380); test: SEC-MALS; apo form; 20 μM protein in MN buffer (50 mM Mops, 100 mM NaCl, pH 7.0); Cosmosil 5Diol-300-II column, miniDAWN TREOS
[2] = molecular target: PaSOD-2 (Cys-less CuZnSOD from Paenibacillus lautus NBRC 15380, WP_246059286.1 without the predicted signal peptide) (Paenibacillus lautus NBRC 15380); test: SEC-MALS; holo form (copper and zinc bound); 20 μM protein in MN buffer (50 mM Mops, 100 mM NaCl, pH 7.0); Cosmosil 5Diol-300-II column, miniDAWN TREOS
[3] = molecular target: PaSOD-1 (Cys-less CuZnSOD from Paenibacillus lautus NBRC 15380, WP_246059278.1 without the predicted signal peptide) (Paenibacillus lautus NBRC 15380); test: SEC-MALS; apo form; 20 μM protein in MN buffer (50 mM Mops, 100 mM NaCl, pH 7.0); Cosmosil 5Diol-300-II column, miniDAWN TREOS
[4] = molecular target: PaSOD-1 (Cys-less CuZnSOD from Paenibacillus lautus NBRC 15380, WP_246059278.1 without the predicted signal peptide) (Paenibacillus lautus NBRC 15380); test: SEC-MALS; holo form (copper and zinc bound); 20 μM protein in MN buffer (50 mM Mops, 100 mM NaCl, pH 7.0); Cosmosil 5Diol-300-II column, miniDAWN TREOS

Row | stoichiometry N [1] | stoichiometry N [2] | stoichiometry N [3] | stoichiometry N [4] | Substance
1 | 2 | 2 |  |  | PaSOD-2 (Cys-less CuZnSOD from Paenibacillus lautus NBRC 15380, WP_246059286.1 without the predicted signal peptide) (enzyme)
2 |  |  | 2 | 2 | PaSOD-1 (Cys-less CuZnSOD from Paenibacillus lautus NBRC 15380, WP_246059278.1 without the predicted signal peptide) (enzyme)
